Reference: patent US20140072613A1, “Compositions and Methods for Treating Cutaneous Scarring” (priority 2012, published 2014)

How the values were obtained:
Experiment in all cases: cell-based or functional assay
Rsk1(h) (human) = Rsk1(h) (human) (UniProt Q15418)
CDK2/cyclinA(h) (human) = CDK2/cyclinA(h) (human) (UniProt P24941)
TSSK2(h) (human) = molecular target: T1, TSSK2(h) (human) (UniProt Q96PF2)
T1 sequence (looked up): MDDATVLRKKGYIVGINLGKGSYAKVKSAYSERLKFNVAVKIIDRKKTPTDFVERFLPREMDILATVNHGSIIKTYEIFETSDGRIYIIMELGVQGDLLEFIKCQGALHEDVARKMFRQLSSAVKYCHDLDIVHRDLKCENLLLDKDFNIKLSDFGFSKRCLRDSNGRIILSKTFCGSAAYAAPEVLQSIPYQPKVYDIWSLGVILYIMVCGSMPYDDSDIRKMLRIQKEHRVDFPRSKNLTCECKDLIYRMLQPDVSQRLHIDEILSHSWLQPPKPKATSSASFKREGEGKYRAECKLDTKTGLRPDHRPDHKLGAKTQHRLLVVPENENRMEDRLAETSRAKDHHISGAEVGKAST

Abl(M351T)(h) (human) = Abl(M351T)(h) (human) (UniProt P00519)
Hck(h) (human) = Hck(h) (human) (UniProt P08631)
Sequence of Hck(h) (human) (P08631 251-518 limits assumed): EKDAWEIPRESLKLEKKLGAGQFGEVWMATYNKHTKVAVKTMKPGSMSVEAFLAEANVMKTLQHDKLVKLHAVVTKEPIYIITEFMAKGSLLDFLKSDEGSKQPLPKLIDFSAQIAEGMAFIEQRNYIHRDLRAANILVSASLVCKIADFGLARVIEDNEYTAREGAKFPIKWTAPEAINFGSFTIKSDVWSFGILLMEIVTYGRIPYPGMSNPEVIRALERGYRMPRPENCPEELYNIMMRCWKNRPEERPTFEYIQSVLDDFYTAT

PKD2(h) (human) = molecular target: T2, PKD2(h) (human) (UniProt Q9BZL6)
T2 sequence (looked up): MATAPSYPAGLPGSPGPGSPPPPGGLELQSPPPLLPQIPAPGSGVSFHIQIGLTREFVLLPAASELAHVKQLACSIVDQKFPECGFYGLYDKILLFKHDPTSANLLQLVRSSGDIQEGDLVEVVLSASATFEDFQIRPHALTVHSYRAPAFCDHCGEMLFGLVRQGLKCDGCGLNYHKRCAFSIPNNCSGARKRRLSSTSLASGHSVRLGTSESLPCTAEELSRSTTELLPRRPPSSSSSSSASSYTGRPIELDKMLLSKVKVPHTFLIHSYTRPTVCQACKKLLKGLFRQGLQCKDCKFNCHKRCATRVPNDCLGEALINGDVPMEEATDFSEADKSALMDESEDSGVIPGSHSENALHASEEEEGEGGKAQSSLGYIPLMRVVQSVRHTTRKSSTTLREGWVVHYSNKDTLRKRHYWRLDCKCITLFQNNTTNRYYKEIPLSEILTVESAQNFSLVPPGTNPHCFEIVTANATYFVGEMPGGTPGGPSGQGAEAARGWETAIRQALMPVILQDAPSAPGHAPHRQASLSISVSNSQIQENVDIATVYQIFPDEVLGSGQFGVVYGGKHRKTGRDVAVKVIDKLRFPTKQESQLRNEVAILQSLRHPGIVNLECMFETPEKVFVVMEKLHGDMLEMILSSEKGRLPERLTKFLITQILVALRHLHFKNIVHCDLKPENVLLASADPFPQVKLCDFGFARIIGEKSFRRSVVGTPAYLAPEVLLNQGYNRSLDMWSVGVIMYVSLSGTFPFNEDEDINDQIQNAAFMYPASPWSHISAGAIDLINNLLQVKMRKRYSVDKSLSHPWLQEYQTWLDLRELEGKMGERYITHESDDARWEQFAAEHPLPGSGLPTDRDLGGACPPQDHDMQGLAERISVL

TrkA(h) (human) = TrkA(h) (human) (UniProt P04629)
Sequence of TrkA(h) (human) (P04629 441-796 limits assumed): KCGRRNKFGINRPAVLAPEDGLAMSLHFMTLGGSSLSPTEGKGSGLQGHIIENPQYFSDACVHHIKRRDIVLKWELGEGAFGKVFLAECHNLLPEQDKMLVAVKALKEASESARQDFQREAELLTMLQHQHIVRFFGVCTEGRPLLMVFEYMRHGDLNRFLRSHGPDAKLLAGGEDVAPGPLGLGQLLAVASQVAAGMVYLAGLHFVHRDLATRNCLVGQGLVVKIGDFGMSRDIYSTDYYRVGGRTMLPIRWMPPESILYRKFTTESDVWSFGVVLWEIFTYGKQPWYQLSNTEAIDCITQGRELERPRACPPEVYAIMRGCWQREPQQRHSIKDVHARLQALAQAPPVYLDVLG

TAO2(h) (human) = molecular target: T3, TAO2(h) (human) (UniProt Q9UL54)
T3 sequence (looked up): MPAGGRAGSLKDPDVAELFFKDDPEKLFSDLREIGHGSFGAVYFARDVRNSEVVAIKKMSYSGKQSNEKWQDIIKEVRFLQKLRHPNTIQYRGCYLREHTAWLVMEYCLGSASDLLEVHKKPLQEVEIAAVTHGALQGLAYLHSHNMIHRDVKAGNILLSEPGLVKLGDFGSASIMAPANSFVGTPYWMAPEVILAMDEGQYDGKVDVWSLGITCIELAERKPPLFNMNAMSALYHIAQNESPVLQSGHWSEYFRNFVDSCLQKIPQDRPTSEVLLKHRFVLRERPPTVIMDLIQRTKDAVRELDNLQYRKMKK

MRCKβ(h) (human) = MRCKβ(h) (human) (UniProt Q9Y5S2)
Sequence of MRCKβ(h) (human) (Q9Y5S2 1-473 limits assumed): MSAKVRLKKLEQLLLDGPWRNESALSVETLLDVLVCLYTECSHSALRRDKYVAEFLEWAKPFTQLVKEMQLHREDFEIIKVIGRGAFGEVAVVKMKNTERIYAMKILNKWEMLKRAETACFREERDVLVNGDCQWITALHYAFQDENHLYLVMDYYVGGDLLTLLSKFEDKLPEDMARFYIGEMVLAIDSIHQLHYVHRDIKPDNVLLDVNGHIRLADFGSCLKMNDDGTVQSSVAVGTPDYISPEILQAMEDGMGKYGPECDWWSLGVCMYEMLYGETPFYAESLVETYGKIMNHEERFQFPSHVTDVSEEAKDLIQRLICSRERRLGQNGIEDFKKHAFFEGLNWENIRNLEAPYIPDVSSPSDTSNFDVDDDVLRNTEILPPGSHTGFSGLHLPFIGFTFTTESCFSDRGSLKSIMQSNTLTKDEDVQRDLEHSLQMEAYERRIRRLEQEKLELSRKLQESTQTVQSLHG

SIK(h) (human) = SIK(h) (human) (UniProt P57059)
Sequence of SIK(h) (human) (P57059 whole entry): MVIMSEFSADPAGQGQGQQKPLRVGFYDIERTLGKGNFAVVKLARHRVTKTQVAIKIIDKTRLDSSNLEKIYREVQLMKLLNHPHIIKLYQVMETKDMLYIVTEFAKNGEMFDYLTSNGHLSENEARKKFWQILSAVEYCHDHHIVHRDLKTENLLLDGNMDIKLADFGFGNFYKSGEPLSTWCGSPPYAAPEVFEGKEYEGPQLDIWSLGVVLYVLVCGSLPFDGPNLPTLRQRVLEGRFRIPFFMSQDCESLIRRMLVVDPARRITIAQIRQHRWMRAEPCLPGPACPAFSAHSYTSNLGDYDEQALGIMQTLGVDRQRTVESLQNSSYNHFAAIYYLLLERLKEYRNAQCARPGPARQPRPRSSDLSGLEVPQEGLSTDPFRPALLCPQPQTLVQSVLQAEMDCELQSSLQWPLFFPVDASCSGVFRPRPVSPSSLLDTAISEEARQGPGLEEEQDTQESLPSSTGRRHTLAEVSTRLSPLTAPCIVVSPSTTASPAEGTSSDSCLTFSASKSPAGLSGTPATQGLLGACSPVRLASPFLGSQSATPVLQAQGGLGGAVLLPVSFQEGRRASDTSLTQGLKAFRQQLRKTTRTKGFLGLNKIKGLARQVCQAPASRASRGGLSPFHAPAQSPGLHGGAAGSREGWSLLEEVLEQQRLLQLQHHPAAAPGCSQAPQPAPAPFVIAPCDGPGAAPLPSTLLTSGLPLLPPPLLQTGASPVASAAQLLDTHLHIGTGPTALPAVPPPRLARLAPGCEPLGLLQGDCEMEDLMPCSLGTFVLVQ

TrkB(h) (human) = TrkB(h) (human) (UniProt Q16620)
Sequence of TrkB(h) (human) (Q16620 455-822 limits assumed): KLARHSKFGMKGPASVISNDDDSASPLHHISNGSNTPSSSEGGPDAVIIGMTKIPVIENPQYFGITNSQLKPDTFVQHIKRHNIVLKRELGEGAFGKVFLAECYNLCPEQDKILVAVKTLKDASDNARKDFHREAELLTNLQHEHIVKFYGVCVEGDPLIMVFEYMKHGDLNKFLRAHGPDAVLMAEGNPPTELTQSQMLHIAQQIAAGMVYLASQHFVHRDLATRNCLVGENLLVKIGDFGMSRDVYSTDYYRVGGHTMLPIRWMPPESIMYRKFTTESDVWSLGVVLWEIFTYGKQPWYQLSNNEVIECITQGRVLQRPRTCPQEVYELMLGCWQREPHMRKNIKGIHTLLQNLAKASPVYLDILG

MARK1(h) (human) = MARK1(h) (human) (UniProt Q9P0L2)
Sequence of MARK1(h) (human) (Q9P0L2 whole entry): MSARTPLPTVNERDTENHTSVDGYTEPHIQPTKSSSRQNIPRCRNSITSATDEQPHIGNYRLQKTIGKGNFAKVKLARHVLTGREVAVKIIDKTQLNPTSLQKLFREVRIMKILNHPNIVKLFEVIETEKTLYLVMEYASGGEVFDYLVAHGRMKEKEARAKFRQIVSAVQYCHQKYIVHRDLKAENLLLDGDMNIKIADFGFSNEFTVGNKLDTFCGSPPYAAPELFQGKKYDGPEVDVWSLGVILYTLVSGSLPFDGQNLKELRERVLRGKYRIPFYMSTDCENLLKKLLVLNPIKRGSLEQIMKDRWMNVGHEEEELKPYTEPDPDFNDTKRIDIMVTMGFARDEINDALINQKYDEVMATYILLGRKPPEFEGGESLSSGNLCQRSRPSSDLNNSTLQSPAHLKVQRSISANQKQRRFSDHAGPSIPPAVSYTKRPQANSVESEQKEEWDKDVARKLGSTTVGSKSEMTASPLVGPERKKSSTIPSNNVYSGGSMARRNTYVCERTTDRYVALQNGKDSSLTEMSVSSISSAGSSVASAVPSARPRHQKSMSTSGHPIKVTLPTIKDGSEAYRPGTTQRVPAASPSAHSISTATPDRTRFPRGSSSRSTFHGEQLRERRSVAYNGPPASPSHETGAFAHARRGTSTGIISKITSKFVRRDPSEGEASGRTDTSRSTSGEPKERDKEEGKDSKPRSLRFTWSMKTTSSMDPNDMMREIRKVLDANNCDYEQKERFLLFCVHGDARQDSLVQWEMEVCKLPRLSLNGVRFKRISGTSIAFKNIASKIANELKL

CHK2(h) (human) = CHK2(h) (human) (UniProt O96017)
Sequence of CHK2(h) (human) (O96017 5-543 limits assumed): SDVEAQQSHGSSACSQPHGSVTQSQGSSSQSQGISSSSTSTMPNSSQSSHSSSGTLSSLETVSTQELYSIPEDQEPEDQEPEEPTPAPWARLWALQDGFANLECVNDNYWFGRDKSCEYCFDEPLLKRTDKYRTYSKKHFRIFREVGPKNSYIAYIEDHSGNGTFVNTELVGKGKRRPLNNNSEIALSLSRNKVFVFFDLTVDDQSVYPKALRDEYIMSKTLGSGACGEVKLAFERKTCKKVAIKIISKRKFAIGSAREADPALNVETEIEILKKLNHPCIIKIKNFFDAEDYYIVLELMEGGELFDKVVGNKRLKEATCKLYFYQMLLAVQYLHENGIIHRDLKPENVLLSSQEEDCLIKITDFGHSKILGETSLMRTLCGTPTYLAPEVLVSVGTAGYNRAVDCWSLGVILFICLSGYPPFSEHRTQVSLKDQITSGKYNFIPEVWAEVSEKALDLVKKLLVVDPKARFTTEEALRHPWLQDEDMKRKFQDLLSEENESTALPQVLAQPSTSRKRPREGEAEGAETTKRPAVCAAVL

BTK(R28H)(h) (human) = BTK(R28H)(h) (human) (UniProt Q06187)
Sequence of BTK(R28H)(h) (human) (Q06187 whole entry R28H): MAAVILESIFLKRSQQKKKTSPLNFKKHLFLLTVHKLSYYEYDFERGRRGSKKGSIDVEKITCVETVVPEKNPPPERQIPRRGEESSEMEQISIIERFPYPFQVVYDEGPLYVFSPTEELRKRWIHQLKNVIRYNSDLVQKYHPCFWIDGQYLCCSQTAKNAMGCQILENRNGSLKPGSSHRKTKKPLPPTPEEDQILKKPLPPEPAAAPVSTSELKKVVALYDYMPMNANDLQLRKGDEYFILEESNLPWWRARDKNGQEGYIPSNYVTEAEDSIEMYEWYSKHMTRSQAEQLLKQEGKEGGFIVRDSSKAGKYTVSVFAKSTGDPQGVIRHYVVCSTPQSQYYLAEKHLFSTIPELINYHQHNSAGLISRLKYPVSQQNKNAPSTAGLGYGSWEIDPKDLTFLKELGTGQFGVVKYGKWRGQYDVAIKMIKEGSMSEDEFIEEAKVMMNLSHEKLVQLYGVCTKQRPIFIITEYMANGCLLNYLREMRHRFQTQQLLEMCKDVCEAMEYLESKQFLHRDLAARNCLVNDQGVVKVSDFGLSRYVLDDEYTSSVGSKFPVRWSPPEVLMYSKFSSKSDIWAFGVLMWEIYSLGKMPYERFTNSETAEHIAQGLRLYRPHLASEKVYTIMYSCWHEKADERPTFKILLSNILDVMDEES

NLK(h) (human) = molecular target: T4, NLK(h) (human) (UniProt Q9UBE8)
T4 sequence (looked up): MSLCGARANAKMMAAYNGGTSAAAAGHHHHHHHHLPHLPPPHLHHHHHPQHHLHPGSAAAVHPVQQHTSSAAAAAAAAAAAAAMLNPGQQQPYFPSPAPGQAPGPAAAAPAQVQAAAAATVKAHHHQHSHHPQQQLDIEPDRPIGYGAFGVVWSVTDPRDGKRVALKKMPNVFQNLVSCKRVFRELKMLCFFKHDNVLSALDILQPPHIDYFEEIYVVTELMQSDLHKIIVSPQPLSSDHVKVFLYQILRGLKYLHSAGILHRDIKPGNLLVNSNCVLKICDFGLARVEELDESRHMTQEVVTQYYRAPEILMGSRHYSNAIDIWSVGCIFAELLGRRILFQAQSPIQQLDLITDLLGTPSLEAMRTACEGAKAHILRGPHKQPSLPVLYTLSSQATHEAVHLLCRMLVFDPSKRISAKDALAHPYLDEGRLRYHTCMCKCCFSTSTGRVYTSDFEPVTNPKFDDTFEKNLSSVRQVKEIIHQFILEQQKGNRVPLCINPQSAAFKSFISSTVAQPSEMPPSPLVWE

AMPKα2(h) (human) = AMPKα2(h) (human) (UniProt P54646)

Sequence of Rsk1(h) (human) (Q15418 whole entry): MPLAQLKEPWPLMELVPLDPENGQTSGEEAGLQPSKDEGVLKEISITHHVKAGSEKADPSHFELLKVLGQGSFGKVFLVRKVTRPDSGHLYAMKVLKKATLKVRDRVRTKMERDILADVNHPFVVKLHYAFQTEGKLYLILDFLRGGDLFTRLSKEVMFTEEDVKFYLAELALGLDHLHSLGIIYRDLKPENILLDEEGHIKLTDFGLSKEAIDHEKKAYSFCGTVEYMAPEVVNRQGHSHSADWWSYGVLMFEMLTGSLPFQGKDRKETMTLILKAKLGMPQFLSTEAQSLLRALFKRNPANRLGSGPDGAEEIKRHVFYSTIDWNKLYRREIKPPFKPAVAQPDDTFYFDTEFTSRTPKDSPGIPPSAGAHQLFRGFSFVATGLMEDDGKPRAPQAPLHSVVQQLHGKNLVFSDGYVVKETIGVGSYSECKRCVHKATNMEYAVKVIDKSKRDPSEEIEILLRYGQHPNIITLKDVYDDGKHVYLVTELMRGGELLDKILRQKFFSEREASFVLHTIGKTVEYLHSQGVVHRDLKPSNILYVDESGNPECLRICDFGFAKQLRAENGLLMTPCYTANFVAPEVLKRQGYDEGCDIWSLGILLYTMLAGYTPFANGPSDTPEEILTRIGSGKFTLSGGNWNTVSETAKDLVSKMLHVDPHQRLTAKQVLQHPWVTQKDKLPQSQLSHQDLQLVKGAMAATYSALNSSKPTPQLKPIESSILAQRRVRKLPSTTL

What does the source list for MMI-0500 (peptide)?
% activity, 100 µM (Rsk1(h) (human)): 34%; % activity, 100 µM (CDK2/cyclinA(h) (human)): 87%; % activity, 100 µM (TSSK2(h) (human)): 92%; % activity, 100 µM (Abl(M351T)(h) (human)): 61%; % activity, 100 µM (Hck(h) (human)): 78%; % activity, 100 µM (PKD2(h) (human)): 10%; % activity, 100 µM (TrkA(h) (human)): 24%; % activity, 100 µM (TAO2(h) (human)): 15%; % activity, 100 µM (MRCKβ(h) (human)): -10%; % activity, 100 µM (SIK(h) (human)): 40%; % activity, 100 µM (TrkB(h) (human)): 12%; inhibition of kinase activity at 100 µM (TrkB(h) (human)): > 65%; % activity, 100 µM (MARK1(h) (human)): 110%; % activity, 100 µM (CHK2(h) (human)): 13%; % activity, 100 µM (BTK(R28H)(h) (human)): 10%; % activity, 100 µM (NLK(h) (human)): 19%; % activity, 100 µM (AMPKα2(h) (human)): 9%
